From patent publication US20130224191A1, “NOTUM PROTEIN MODULATORS AND METHODS OF USE” (priority 2010, published 2013)

T1: Notum (Homo sapiens, UniProt Q6P988)
T1 sequence (Q6P988 20-496): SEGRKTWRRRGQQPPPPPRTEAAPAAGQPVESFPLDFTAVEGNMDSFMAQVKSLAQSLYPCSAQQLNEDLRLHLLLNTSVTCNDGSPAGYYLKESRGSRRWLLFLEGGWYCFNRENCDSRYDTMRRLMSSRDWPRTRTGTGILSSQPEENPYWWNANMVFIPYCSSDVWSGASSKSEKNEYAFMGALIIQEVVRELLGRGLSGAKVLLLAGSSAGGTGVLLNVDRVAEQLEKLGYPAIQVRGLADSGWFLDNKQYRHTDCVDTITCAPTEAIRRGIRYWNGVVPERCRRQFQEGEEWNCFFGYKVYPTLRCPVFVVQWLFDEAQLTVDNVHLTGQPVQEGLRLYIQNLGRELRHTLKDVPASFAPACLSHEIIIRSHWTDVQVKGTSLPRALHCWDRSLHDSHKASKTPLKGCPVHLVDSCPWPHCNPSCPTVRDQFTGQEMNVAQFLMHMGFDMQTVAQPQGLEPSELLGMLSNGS

T2: human Notum (recombinant or endogenous; construct not specified at the place of use) (human, UniProt Q6P988 20-496)
T2 construct: also called hNotum; human Notum protein
T2 sequence: T1 sequence (Q6P988 20-496)

B1: hNotum-Fc: recombinant human Notum fused to human IgG2 Fc, SEQ ID NO: 333 (protein)
chain: MYRMQLLSCIALSLALVTNSSEGRKTWRRRGQQPPPPPRTEAAPAAGQPVESFPLDFTAVEGNMDSFMAQVKSLAQSLYPCSAQQLNEDLRLHLLLNTSVTCNDGSPAGYYLKESRGSRRWLLFLEGGWYCFNRENCDSRYDTMRRLMSSRDWPRTRTGTGILSSQPEENPYWWNANMVFIPYCSSDVWSGASSKSEKNEYAFMGALIIQEVVRELLGRGLSGAKVLLLAGSSAGGTGVLLNVDRVAEQLEKLGYPAIQVRGLADSGWFLDNKQYRHTDCVDTITCAPTEAIRRGIRYWNGVVPERCRRQFQEGEEWNCFFGYKVYPTLRCPVFVVQWLFDEAQLTVDNVHLTGQPVQEGLRLYIQNLGRELRHTLKDVPASFAPACLSHEIIIRSHWTDVQVKGTSLPRALHCWDRSLHDSHKASKTPLKGCPVHLVDSCPWPHCNPSCPTVRDQFTGQEMNVAQFLMHMGFDMQTVAQPQGLEPSELLGMLSNGSISAMVRSVECPPCPAPPVAGPSVFLFPPKPKDTLMISRTPEVTCVVVDVSHEDPEVQFNWYVDGVEVHNAKTKPREEQFNSTFRVVSVLTVVHQDWLNGKEYKCKVSNKGLPAPIEKTISKTKGQPREPQVYTLPPSREEMTKNQVSLTCLVKGFYPSDIAVEWESNGQPENNYKTTPPMLDSDGSFFLYSKLTVDKSRWQQGNVFSCSVMHEALHNHYTQKSLSLSPGK
B2: hSC2.D2.2 (antibody, human IgG1, V domains shown)
VH: EVQLVESGGGLVQPGGSLRLSCAASGFTFSSYGMNWVRQAPGKGLEWVSYISSSTVTTYYADSVKGRFTISRDNAKNSLYLQMNSLRDEDTAVYYCSRQNWDGGYFDVWGAGTTVTVSS
VL: DIVMTQSPLSLPVTPGEPASISCRASKSVSSSGYSYMHWYLQKPGQSPQLLIYLASNLESGVPDRFSGSGSGTDFTLKISRVEAEDVGVYYCQHSRALPLTFGAGTKLELKR
notes: Humanized variable regions cloned into vectors with human IgG1 and kappa constant regions; also called humanized SC2.D2.2

Assays:
[1] = tested on: Wnt3A-mediated induction of luciferase in the 293.TCF cells; assay: Wnt3A canonical signaling assay, bioactivity of Notum constructs; type: cell-based, human
Text: To generate a stable population of cells that contain a reporter for the activation of canonical Wnt signaling, HEK 293T cells were transduced with a lentiviral vector, pGreenFirel-TCF (System Biosciences) which encodes a bifunctional GFP and luciferase reporter cassette under the control of a minimal CMV reporter linked to four tandem repeats of the transcriptional response elements for TCF. Transduced cells populations, termed 293.TCF cells, were subsequently used in a Wnt3A canonical signaling assay as follows: 2.5×10^4 293.TCF cells were plated per well of a 96-well tissue culture plate in 50 μL of serum-free DME medium. After 24 hours of serum starvation, 25 μL of various dilutions of conditioned medium (CM) from L/Wnt3A cells (ATCC CRL-2647; Willert, 2003) or undiluted CM from parental L-cells (ATCC CRL-2648) along with 25 μL of DMEM+0.2% FBS were added to each well. Eighteen hours after addition of CM, 100 μL of One-Glo solution (ProMega Corp.) was added to each well. The contents of each well were then mixed thoroughly to lyse the cells, 100 μL of lysate transferred to black 96-well plates, and the luminescence in each well read after 5 mins using a Wallac Victor3 Multilabel Counter (Perkin-Elmer Corp). […] More particularly, as the Wnt3A+ CM media is diluted from 25% down to approximately 3%, activation of the Wnt pathway is reduced with a corresponding decrease in luminescence.
Once the luciferase reporter system was established, assays for determining the bioactivity of various Notum modulators were performed as follows. 2.5×10^4 293.TCF cells were plated per well of a 96-well tissue culture plate in 50 μL of serum-free medium. After 23 hours of serum starvation, 25 μL of DMEM+0.2% FBS containing various Notum modulators at various concentrations (e.g., hNotum-His, hNotum-hFc, hNotum-S232A-His, murine Notum-His, murine Notum-hFc, macaque Notum-hFc, control protein-His or control protein-hFc obtained as per Examples 7, 8 and 13 above), were added to the cells. After 1 hour, 25 μL of Wnt3A or control L-cell CM were added to each well. Eighteen hours after addition of CM, 100 μL of One-Glo solution (ProMega Corp.) was added to each well, the contents of each well mixed thoroughly to lyse the cells, 100 μL of lysate transferred to black 96-well plates, and the luminescence read after 5 minutes.

[2] = tested on: mouse lineage-depleted NTX tumor cells from SCRx-CR4; assay: Cell survival/proliferation, CellTiterGlo, SCRx-CR4; type: cell-based, human; settings: 1 or 10 μg/mL, 14 days
Experimental: To determine whether Notum protein impacts cell proliferation and/or apoptosis of human colorectal cancer cells, HCT-116 cells or mouse lineage-depleted NTX tumor cells (i.e. human tumor cells) were plated as described below and exposed to recombinant hNotum (e.g. hNotum-His or hNotum-hFc) and anti-Notum antibodies. Cell numbers were then assessed 12-14 days later.
Cells were then incubated for 14 days at 37° C., 5% CO2 and 5% O2 and the number of viable cells was assessed using Promega's CellTiterGlo assay kit per the manufacturer's instructions. For the HCT-116 cell line (a commercially available colorectal tumor cell line), cells were plated at 2,000 cells per well in DMEM+1% FBS, followed 24-hours later by the addition of serum free DMEM containing recombinant human Notum in the presence or absence of monoclonal antibodies SC2.D2.2 or SC2.10B3. HCT-116 cells were then incubated for 12 days at 37° C., 5% CO2 and cell viability was assessed with Promega's CellTiterGlo assay kit. Higher readings are indicative of higher viable cell counts.

rhWnt3A = molecular target: T3, rhWnt3A (Homo sapiens, UniProt P56704); assay: Triton X114 partition assay, delipidation of rhWnt3A by Notum; type: biochemical; settings: overnight incubation
T3 construct: purchased R & D Systems
Text: If Notum directly acts upon Wnt3A to delipidate the protein, this cleavage should result in a change in the hydrophobicity of the protein, which can be measured by a change in its partitioning behavior between aqueous and detergent phases in a Triton X114 partition assay (Bordier, 1981, PMID: 6257680): lipidated Wnt3A will be found in the […], whereas delipidated Wnt3A should show up in the […] (Willert et al., 2003, PMID: 12717451). […] An equal volume of 4.5% Triton X114 was added to the mixture, the mixture incubated on ice for 5 minutes, then at 37° C. for five minutes, before separating the phases using centrifugation at 2000×g for five minutes at room temperature. Following separation each sample was adjusted to normalize the ionic strength and Triton X114 content before analyzing the aliquots by PAGE electrophoresis. After running the gel the protein bands were transferred to a membrane for immunoblotting using an anti-rhWnt3A antibody (Cell Signaling Technology). Bands were visualized using SuperSignal West Pico Chemiluminescent substrate (Thermo Fisher Scientific).

Notum [3] = molecular target: T1, Notum; assay: ELISA, fixed antibody against serial dilutions of antigen; type: binding
Experimental: (§1) Three methods were used to characterize the affinity of humanized SC2.D2.2 relative to its analogous mAb with the murine variable region. First, binding signal was measured for a fixed amount of antibody probed against serial dilutions of antigen in an ELISA format. […] Second, the affinity of murine SC2.D2.2 was measured by Biacore using surface plasmon resonance (SPR) to provide the results set forth in FIG. 32A. Based on a concentration series of 12.5, 6.25, 3.125, 1.5625, 0.78125 nM and using a 1:1 Langmuir binding model, the Kd of the antibody binding to antigen was estimated to be less than 0.1 nM. Long off-rates for this interaction made accurate determination of affinity through kinetics difficult. The murine antibody was then directly compared to the humanized derivative using bio-layer interferometry analysis on a ForteBIO RED (ForteBIO, Inc.) with a concentration series of 250, 125, and 62.5 nM antigen.

Notum [4] = molecular target: T1, Notum; assay: Bio-layer interferometry on ForteBIO RED; type: binding; settings: 250, 125 and 62.5 nM antigen
Experimental: as §1

[5] = molecular target: T2, human Notum (recombinant or endogenous; …); assay: bio-layer interferometry (ForteBIO RED), fixed antibody, antigen at 250, 125 and 62.5 nM by the text
Experimental: Three methods were used to characterize the affinity of humanized SC2.D2.2 relative to its analogous mAb with the murine variable region. First, binding signal was measured for a fixed amount of antibody probed against serial dilutions of antigen in an ELISA format. Measured signal levels were substantially similar (data not shown). Second, the affinity of murine SC2.D2.2 was measured by Biacore using surface plasmon resonance (SPR) to provide the results set forth in FIG. 32A. […] Long off-rates for this interaction made accurate determination of affinity through kinetics difficult. The murine antibody was then directly compared to the humanized derivative using bio-layer interferometry analysis on a ForteBIO RED (ForteBIO, Inc.) with a concentration series of 250, 125, and 62.5 nM antigen.

T3 sequence (P56704 19-352): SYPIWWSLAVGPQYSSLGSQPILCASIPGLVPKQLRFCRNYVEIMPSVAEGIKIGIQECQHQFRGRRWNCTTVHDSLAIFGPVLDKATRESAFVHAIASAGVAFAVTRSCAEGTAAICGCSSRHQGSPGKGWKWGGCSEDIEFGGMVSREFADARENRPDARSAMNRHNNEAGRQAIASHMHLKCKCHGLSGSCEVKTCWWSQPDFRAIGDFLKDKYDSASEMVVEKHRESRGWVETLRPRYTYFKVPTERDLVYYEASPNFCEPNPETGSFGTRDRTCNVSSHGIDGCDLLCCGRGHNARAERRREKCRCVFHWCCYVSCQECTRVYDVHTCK

Molecule | antagonism of Wnt3A-mediated induction of luciferase [1] | increase in cell counts [2] | redistribution of rhWnt3A between Triton X114 and aqueous phase (rhWnt3A) | binding signal relative to antibody with murine variable region (Notum [3]) | affinity, binding curves (Notum [4]) | binding result [5]
B1 | functionally antagonize | 20-45% | leads to a redistribution of the rhWnt3A into the aqueous phase |  |  | 
B2 |  |  |  | substantially similar | excellent affinity | binds
